# Ends that are not written are not given here.
# T1: acetylated peptide at residue K280 (276QIIN-K-Ac-KLDLSNVQSC) (human)
# T1 construct: Coated at 1 ug/ml on 96-well plates; also called acetylated tau peptide
# T1 peptide: QIINK(Ac)KLDLSNVQSC
# Target: T1, acetylated peptide at residue K280 …
# Test: peptide ELISA, peptide coated at 1 ug/ml, hybridoma supernatant diluted 1:10 to 1:2,500
# Procedure: FIG. 13 includes an ELISA assay showing two K280 clones, 19B6 and 17G8, preferentially detect acetylated vs, non-acetylated tau peptides. Standard peptide ELISAs were performed with 1 μg/ml acetylated peptides at residue K280 (276QIIN-K-Ac-[…] (SEQ ID NO:17)) vs, non-acetylated peptides (276[…] (SEQ ID NO: 16)) and used to coat 96-well plates followed by washing with coating buffer (Phosphate Buffered Saline, pH 7.4) and incubated with serial dilutions of hybridoma supernatants (diluted from 1:10 to 1:2,500). Monoclonal antibodies were […] Horseradish peroxidase (HRP)-labeled secondary antibodies and colorimetric ELISAs were performed using a BMG/BioTek® multiplate reader at a standard absorbance setting of 450 nm with auto-mixing and blanking.
row,Binder,binding result
1,"19B6 (antibody, V domains shown, Used as hybridoma supernatant in the peptide ELISA; also called Ac-K280 clone 19B6) VH: EVQLQQSGAEFVRPGASVKLSCTVSGLNIEDDYIQWLKQRPEQGLEWIGWIDPENGDPKYASKFQGKATLTADTSSKIAYLHLSSLTSEDTAVYYCATRGLWGQGTTLTVSS VL: QIVLTQSPAIMSASLGERVTMTCTASSSVSSSYFHWYQQKPGSSPKLWIYSTSNLASGVPVRFSGSGSGTSYSLTISSMEAEDAATYYCHQYHRSPLTFGAGTKLELK",binds
2,"17G8 (antibody, V domains shown, Used as hybridoma supernatant in the peptide ELISA; also called Ac-K280 clone 17G8) VH: EVQLQQSGAEFVRPGASVKLSCTVSGLNIEDDYIQWLKQRPEQGLEWIGWIDPENGDPKYASKFQGKATLTADTSSKIAYLHLSSLTSEDTAVYYCATRGLWGQGTTLTVSS VL: QIVLTQSPAIMSASLGERVTMTCTASSSVSSSYFHWYQQKPGSSPKLWIYSTSNLASGVPVRFSGSGSGTSYSLTISSMEAEDAATYYCHQYHRSPLTFGAGTKLELK",binds

# Reference: US20240376188A1 (UNIVERSITY OF NORTH CAROLINA AT CHAPEL HILL, published 2024)
